Assay results published in patent publication US20230140293A1.

How the values were obtained:
[1] = target: CH505 w078.15 gp120 (HIV-1); test: ELISA, gp120 on plate
[2] = target: CH505 w020.14 gp120 (HIV-1); test: ELISA, gp120 on plate
CH505 M11 gp120 (HIV-1) = test: ELISA, gp120 on plate
[3] = target: CH505 transmitted/founder (TF) gp120 (HIV-1); test: ELISA, gp120 on plate
[4] = target: CH505 w030.28 gp120 (HIV-1); test: ELISA, gp120 on plate
CH505 M5 gp120 (HIV-1) = test: ELISA, gp120 on plate
[5] = target: HIV-1 Env 426c.SM (N276D), Env-pseudotyped virus produced in 293S GnTI- cells (Man5-enriched) (HIV-1 clade C strain 426c); test: cell-based or functional assay
[6] = target: CH0505TF.G458Y Env, Env-pseudotyped virus produced in 293T cells (HIV-1); test: cell-based or functional assay
[7] = target: HIV-1 Env 426c.SM (N276D), Env-pseudotyped virus produced in 293T cells (HIV-1 clade C strain 426c); test: cell-based or functional assay
[8] = target: CH0505TF Env, Env-pseudotyped virus produced in 293S GnTI- cells (Man5-enriched) (HIV-1); test: cell-based or functional assay
[9] = target: HIV-1 Env 426c.DM (N460D.N463D), Env-pseudotyped virus produced in 293S GnTI- cells (Man5-enriched) (HIV-1 clade C strain 426c); test: cell-based or functional assay
[10] = target: HIV-1 Env 426c, Env-pseudotyped virus produced in 293S GnTI- cells (Man5-enriched) (HIV-1 clade C strain 426c); test: cell-based or functional assay
[11] = target: CH0505TF.gly3.461 Env, Env-pseudotyped virus produced in 293T cells (HIV-1); test: cell-based or functional assay
[12] = target: HIV-1 Env 426c.DM (N460D.N463D), Env-pseudotyped virus produced in 293T cells (HIV-1 clade C strain 426c); test: cell-based or functional assay
[13] = target: HIV-1 Env 426c.TM (N276D.N460D.N463D), Env-pseudotyped virus produced in 293S GnTI- cells (Man5-enriched) (HIV-1 clade C strain 426c); test: cell-based or functional assay
[14] = target: HIV-1 clade C strain 426c Env on Env-pseudotyped virus produced in 293s/GnTI-/- cells (Man5-enrichment) (HIV-1); test: cell-based or functional assay
[15] = target: CH0505TF.gly3.276 Env, Env-pseudotyped virus produced in 293T cells (HIV-1); test: cell-based or functional assay
[16] = target: CH0505TF.gly4 Env, Env-pseudotyped virus produced in 293S GnTI- cells (Man5-enriched) (HIV-1); test: cell-based or functional assay
[17] = target: CH0505TF.gly3.276 Env, Env-pseudotyped virus produced in 293S GnTI- cells (Man5-enriched) (HIV-1); test: cell-based or functional assay
[18] = target: HIV-1 426c.DM (N460D/N463D) Env on Env-pseudotyped virus produced in 293s/GnTI-/- cells (Man5-enrichment) (HIV-1); test: cell-based or functional assay
[19] = target: HIV-1 Env 426c.TM4 (S278R.G471S.N460D.N463D), Env-pseudotyped virus produced in 293T cells (HIV-1 clade C strain 426c); test: cell-based or functional assay
[20] = target: HIV-1 426c.DM (N460D/N463D) Env on Env-pseudotyped virus produced in 293T cells (HIV-1); test: cell-based or functional assay
[21] = target: HIV-1 426c.TM (N276D/N460D/N463D) Env on Env-pseudotyped virus produced in 293s/GnTI-/- cells (Man5-enrichment) (HIV-1); test: cell-based or functional assay
[22] = target: HIV-1 426c.SM (N276D) Env on Env-pseudotyped virus produced in 293s/GnTI-/- cells (Man5-enrichment) (HIV-1); test: cell-based or functional assay
[23] = target: CH0505.w4.3 Env, Env-pseudotyped virus produced in 293T cells (HIV-1); test: cell-based or functional assay
[24] = target: CH0505TF.G458Y Env, Env-pseudotyped virus produced in 293S GnTI- cells (Man5-enriched) (HIV-1); test: cell-based or functional assay
[25] = target: CH0505TF Env, Env-pseudotyped virus produced in 293T cells (HIV-1); test: cell-based or functional assay
[26] = target: HIV-1 Env 426c, Env-pseudotyped virus produced in 293T cells (HIV-1 clade C strain 426c); test: cell-based or functional assay
[27] = target: HIV-1 clade C strain 426c Env on Env-pseudotyped virus produced in 293T cells (HIV-1); test: cell-based or functional assay
[28] = target: CH0505TF.gly3.197 Env, Env-pseudotyped virus produced in 293S GnTI- cells (Man5-enriched) (HIV-1); test: cell-based or functional assay
[29] = target: HIV-1 426c.SM (N276D) Env on Env-pseudotyped virus produced in 293T cells (HIV-1); test: cell-based or functional assay
[30] = target: HIV-1 Env 426c.TM (N276D.N460D.N463D), Env-pseudotyped virus produced in 293T cells (HIV-1 clade C strain 426c); test: cell-based or functional assay
[31] = target: HIV-1 426c.TM (N276D/N460D/N463D) Env on Env-pseudotyped virus produced in 293T cells (HIV-1); test: cell-based or functional assay
[32] = target: CH0505TF.gly3.461 Env, Env-pseudotyped virus produced in 293S GnTI- cells (Man5-enriched) (HIV-1); test: cell-based or functional assay
[33] = target: CH0505TF.gly4 Env, Env-pseudotyped virus produced in 293T cells (HIV-1); test: cell-based or functional assay
[34] = target: HIV-1 Env 426c.TM4 (S278R.G471S.N460D.N463D), Env-pseudotyped virus produced in 293S GnTI- cells (Man5-enriched) (HIV-1 clade C strain 426c); test: cell-based or functional assay
[35] = target: CH0505TF.gly3.197 Env, Env-pseudotyped virus produced in 293T cells (HIV-1); test: cell-based or functional assay

CH103 lineage intermediate ancestor IA6 (antibody)
10 log AUC: log AUC (CH505 M11 gp120 (HIV-1))
6.3 log AUC: log AUC [4]
3.3 log AUC: log AUC (CH505 M5 gp120 (HIV-1))
1 log AUC: log AUC [1]
9.1 log AUC: log AUC [3]
7.9 log AUC: log AUC [2]

CH103 lineage intermediate ancestor IA7 (antibody)
3.5 log AUC: log AUC [4]
0.7 log AUC: log AUC [1]
10.1 log AUC: log AUC (CH505 M11 gp120 (HIV-1))
2.3 log AUC: log AUC (CH505 M5 gp120 (HIV-1))
9.2 log AUC: log AUC [3]
7.2 log AUC: log AUC [2]

CH103 lineage intermediate ancestor IA8 (antibody)
3.4 log AUC: log AUC [2]
5.5 log AUC: log AUC [3]
0.6 log AUC: log AUC (CH505 M5 gp120 (HIV-1))
6.2 log AUC: log AUC (CH505 M11 gp120 (HIV-1))
1.6 log AUC: log AUC [4]

PGT121 (antibody)
> 20 µg/mL: IC50 (µg/ml) in TZM-bl [23]
2.5 µg/mL: IC50 (µg/ml) in TZM-bl [10] | ID50/IC50 in TZM-bl [14]
3.4 µg/mL: IC50 (µg/ml) in TZM-bl [9] | IC50 (µg/ml) in TZM-bl [13] | ID50/IC50 in TZM-bl [18] | ID50/IC50 in TZM-bl [21]
4.2 µg/mL: IC50 (µg/ml) in TZM-bl [5] | ID50/IC50 in TZM-bl [22]
> 5 µg/mL: IC50 (µg/ml) in TZM-bl [6] | IC50 (µg/ml) in TZM-bl [7] | IC50 (µg/ml) in TZM-bl [8] | IC50 (µg/ml) in TZM-bl [11] | IC50 (µg/ml) in TZM-bl [12] | IC50 (µg/ml) in TZM-bl [15] | IC50 (µg/ml) in TZM-bl [16] | IC50 (µg/ml) in TZM-bl [17] | IC50 (µg/ml) in TZM-bl [19] | ID50/IC50 in TZM-bl [20] | IC50 (µg/ml) in TZM-bl [24] | IC50 (µg/ml) in TZM-bl [25] | IC50 (µg/ml) in TZM-bl [26] | ID50/IC50 in TZM-bl [27] | IC50 (µg/ml) in TZM-bl [28] | ID50/IC50 in TZM-bl [29] | IC50 (µg/ml) in TZM-bl [30] | ID50/IC50 in TZM-bl [31] | IC50 (µg/ml) in TZM-bl [32] | IC50 (µg/ml) in TZM-bl [33] | IC50 (µg/ml) in TZM-bl [34] | IC50 (µg/ml) in TZM-bl [35]

PGT128 (antibody)
> 5 µg/mL: IC50 (µg/ml) in TZM-bl [5] | IC50 (µg/ml) in TZM-bl [6] | IC50 (µg/ml) in TZM-bl [7] | IC50 (µg/ml) in TZM-bl [8] | IC50 (µg/ml) in TZM-bl [9] | IC50 (µg/ml) in TZM-bl [11] | IC50 (µg/ml) in TZM-bl [12] | IC50 (µg/ml) in TZM-bl [13] | IC50 (µg/ml) in TZM-bl [15] | IC50 (µg/ml) in TZM-bl [16] | IC50 (µg/ml) in TZM-bl [17] | ID50/IC50 in TZM-bl [18] | IC50 (µg/ml) in TZM-bl [19] | ID50/IC50 in TZM-bl [20] | ID50/IC50 in TZM-bl [21] | ID50/IC50 in TZM-bl [22] | IC50 (µg/ml) in TZM-bl [24] | IC50 (µg/ml) in TZM-bl [25] | IC50 (µg/ml) in TZM-bl [26] | ID50/IC50 in TZM-bl [27] | IC50 (µg/ml) in TZM-bl [28] | ID50/IC50 in TZM-bl [29] | IC50 (µg/ml) in TZM-bl [30] | ID50/IC50 in TZM-bl [31] | IC50 (µg/ml) in TZM-bl [32] | IC50 (µg/ml) in TZM-bl [33] | IC50 (µg/ml) in TZM-bl [34] | IC50 (µg/ml) in TZM-bl [35]
4.3 µg/mL: IC50 (µg/ml) in TZM-bl [10] | ID50/IC50 in TZM-bl [14]
> 10 µg/mL: IC50 (µg/ml) in TZM-bl [23]

PGT151 (antibody)
1.6 µg/mL: IC50 (µg/ml) in TZM-bl [10] | ID50/IC50 in TZM-bl [14]
2.9 µg/mL: IC50 (µg/ml) in TZM-bl [34]
> 25 µg/mL: IC50 (µg/ml) in TZM-bl [23]
0.007 µg/mL: IC50 (µg/ml) in TZM-bl [15]
0.13 µg/mL: IC50 (µg/ml) in TZM-bl [16]
2.5 µg/mL: IC50 (µg/ml) in TZM-bl [13] | ID50/IC50 in TZM-bl [21]
0.01 µg/mL: IC50 (µg/ml) in TZM-bl [6] | IC50 (µg/ml) in TZM-bl [7] | IC50 (µg/ml) in TZM-bl [11] | IC50 (µg/ml) in TZM-bl [12] | IC50 (µg/ml) in TZM-bl [19] | ID50/IC50 in TZM-bl [20] | IC50 (µg/ml) in TZM-bl [25] | IC50 (µg/ml) in TZM-bl [26] | ID50/IC50 in TZM-bl [27] | ID50/IC50 in TZM-bl [29] | IC50 (µg/ml) in TZM-bl [30] | ID50/IC50 in TZM-bl [31] | IC50 (µg/ml) in TZM-bl [33] | IC50 (µg/ml) in TZM-bl [35]
1.9 µg/mL: IC50 (µg/ml) in TZM-bl [5] | ID50/IC50 in TZM-bl [22]
> 5 µg/mL: IC50 (µg/ml) in TZM-bl [8] | IC50 (µg/ml) in TZM-bl [17] | IC50 (µg/ml) in TZM-bl [24] | IC50 (µg/ml) in TZM-bl [28] | IC50 (µg/ml) in TZM-bl [32]
2.2 µg/mL: IC50 (µg/ml) in TZM-bl [9] | ID50/IC50 in TZM-bl [18]
